{"source": "paper PMC11729874", "about": "“How J-chain ensures the assembly of immunoglobulin IgM pentamers” (The EMBO Journal, 2024)", "molecules": {"B1": {"name": "murine Joining Chain wild type, recombinant (natural protein, mouse)", "chain": "MGDDEATILADNKCMCTRVTSRIIPSTEDPNEDIVERNIRIVVPLNNRENISDPTSPLRRNFVYHLSDVCKKCDPVEVELEDQVVTATQSNICNEDDGVPETCYMYDRNKCYTTMVPLRYHGETKMVQAALTPDSCYPD", "notes": "methionine added at position 1; murine joining chain (J chain), G22-D159 of the precursor; Heterogeneous native and non-native disulfides; largely unstructured by CD; also called JC; J chain"}, "B2": {"name": "Halo-tagged truncated µs variant lacking the variable and first constant domains (H-Cµ234tp) (domain or fragment, UniProt P01872 106-454, looked up)", "chain": "VAEMNPNVNVFVPPRDGFSGPAPRKSKLICEATNFTPKPITVSWLKDGKLVESGFTTDPVTIENKGSTPQTYKVISTLTISEIDWLNLNVYTCRVDHRGLTFLKNVSSTCAASPSTDILTFTIPPSFADIFLSKSANLTCLVSNLATYETLNISWASQSGEPLETKIKIMESHPNGTFSAKGVASVCVEDWNNRKEFVCTVTHRDLPSPQKKFISKPNEVHKHPPAVYLLPPAREQLNLRESATVTCLVKGFSPADISVQWLQRGQLLPQEKYVTSAPMPEPGAPGFYFTHSILTVTEEEWNSGETYTCVVGHEALPHLVTERTVDKSTGKPTLYNVSLIMSDTGGTCY", "notes": "secretory Ig µ heavy chain without the variable and first constant domains: Cµ2, Cµ3, Cµ4 and the tailpiece; the gene carries a signal peptide; Detected with anti-mouse IgM (µ chain); also called Halo-Cµ234tp; H-Cµ234tp WT; source: HEK293/HEK293T or HeLa-ERp44KO, transfected, in lysate or supernatant"}}, "key": {"[1]": {"molecular_target": "murine Cμ4tp domain, recombinant (mouse)", "test": "SEC; analytical SE-HPLC, Superdex 200 Increase 10/300, PBS pH 7.4, 25 °C; 1 mg/mL Cµ4tp (DTT removed) and/or 0.5 mg/mL J chain (if not stated otherwise) incubated 24 h at room temperature"}, "[2]": {"molecular_target": "murine Cμ4tp domain, recombinant (mouse)", "test": "SEC; analytical SE-HPLC, Superdex 200 Increase 10/300, PBS pH 7.4, 25 °C; 1 mg/mL Cµ4tp (DTT removed) and/or 0.5 mg/mL J chain (if not stated otherwise) incubated 24 h at room temperature", "remark": "listed apart in the source"}, "[3]": {"molecular_target": "the molecule itself", "test": "cross-linking; disulfide mapping of recombinant JC by cross-linking MS: denatured, alkylated with iodoacetamide, trypsin and Asp-N, HPLC-MS/MS, Kojak with disulfide as crosslinker"}, "[4]": {"molecular_target": "the molecule itself", "test": "nonreducing SDS-PAGE and western blot of covalent assemblies; HEK293/HEK293T co-transfected with H-Cµ234tp and JC variants, 48 h; RIPA lysates with 10 mM NEM and TCA-precipitated supernatants; Halo ligands, anti-JC, anti-µ"}}}
{"molecule": "murine Cμ4tp domain, recombinant (domain or fragment)", "values": [{"measurement": "stoichiometry N", "setting": "[1]", "value": 2, "unit": "chains"}, {"measurement": "stoichiometry N (Cµ4tp2 dimers)", "setting": "[1]", "value": 6}]}
{"molecule": "B1", "values": [{"measurement": "stoichiometry N (JC per (Cµ4tp2)5)", "setting": "[2]", "value": 1}, {"measurement": "binding result", "setting": "[3]", "value": "binds"}]}
{"molecule": "B2", "values": [{"measurement": "stoichiometry N", "setting": "[4]", "value": "6 H-Cµ234tp2 subunits (dimers)"}]}
